In patent US8343503B2, “Contiguous overlapping peptides for treatment of birch pollen allergy” (Anergis S.A., priority 2009, dated 2013):
Like-named read-outs stand apart in the source and are kept apart here. No end group written: not given here.

B1: AllerT2: SEQ ID NO: 2, aa 48-118 of SEQ ID 9 (Bet v 1) contiguous overlapping peptide (peptide)
chain: NGGPGTIKKISFPEGFPFKYVKDRVDEVDHTNFKYNYSVIEGGPIGDTLEKISNEIKIVATPDGGSILKIS
B2: r Bet v 1: Purified recombinant Bet v 1, birch pollen major allergen, purchased from BIOMAY; SEQ ID 9, Swissprot P15494 (protein)
chain: MGVFNYETETTSVIPAARLFKAFILDGDNLFPKVAPQAISSVENIEGNGGPGTIKKISFPEGFPFKYVKDRVDEVDHTNFKYNYSVIEGGPIGDTLEKISNEIKIVATPDGGSILKISNKYHTKGDHEVKAEQVKASKEMGETLLRAVESYLLAHSDAYN
B3: AllerT5: SEQ ID NO: 5, aa 65-160 of SEQ ID 9 (Bet v 1) contiguous overlapping peptide (peptide)
chain: FKYVKDRVDEVDHTNFKYNYSVIEGGPIGDTLEKISNEIKIVATPDGGSILKISNKYHTKGDHEVKAEQVKASKEMGETLLRAVESYLLAHSDAYN
B4: AllerT4: SEQ ID NO: 4, aa 2-85 of SEQ ID 9 (Bet v 1) contiguous overlapping peptide (peptide)
chain: GVFNYETETTSVIPAARLFKAFILDGDNLFPKVAPQAISSVENIEGNGGPGTIKKISFPEGFPFKYVKDRVDEVDHTNFKYNYS

Legend:
[1] = test system: birch pollen allergic volunteers; settings: human, in vivo
Description: (§1) The allergenic response of the peptides was evaluated in vivo by SPT with each of the 5 peptides (AllerT1, AllerT2, AllerT3, AllerT4 and AllerT5) and with the 2 sets (AllerT1-3 and AllerT4-5) on all patients. For each peptide, a 20 μl drop was applied on the forearm at 3 different concentrations (10, 1 and 0.1 μM). […] The weal diameter was evaluated by taking the maximal diameter. SPT was considered positive when the weal diameter was 4 mm or more with an erythema (Hoffmann, A. et al., J Allergy Clin Immunol, 99(2):227-32 (1997). Reactions resulting in a weal diameter below 4 mm, while exceeding 2 mm, were also recorded and classified as “dubious”.

[2] = test system: birch pollen allergic volunteers; test: Skin prick tests (SPT) of allergic patients; settings: for Positive skin reactions (subjects) / Reactivity lower than defined threshold (dubious) (subjects): 20 volunteers
Description: as §1

Bet v 1 specific IgE = test: Competition ELISA: IgE binding of COPs compared to r Bet v 1; set-up: species or system human; settings: for competition for IgE binding to coated r Bet v 1: serial dilutions starting at 10 μM pre-incubated with serum of birch pollen allergic subjects; for competition with Bet v 1 for IgE binding / residual IgE binding: sera from three allergic patients (data not shown)
Description: Recombinant Bet v 1 at 0.5 μg/ml (r Bet v 1 obtained from Biomay, Austria) was coated overnight on 96-well Nunc Maxisorp® immunoplates (Life Technologies, Basel, Switzerland). After blocking with 1% BSA, ten-fold dilutions of patient serum were added. […] The sera of three allergic patients were selected for high IgE level and clear signal over background and used to test for competition with the peptides. Serial dilutions of each COP, namely AllerT1, AllerT2, AllerT3, AllerT4, AllerT5, AllerT6, AllerT7 and AllerT8, or mixtures of AllerT1-3, AllerT4-5 and AllerT6-8, starting at 10 μM, were pre-incubated with the three selected sera overnight at 4° C. Sera were then incubated on r Bet v 1 coated 96-well plates and residual IgE binding was determined as described above. r Bet v 1 dilutions were used as control for inhibition, whereas BSA was used as control for possible non-specific inhibition.

[3] = test system: basophils (IgE-positive cells) in blood from a birch pollen allergic donor; test: Basophil degranulation test (Basotest); format: cell-based, human; settings: blood of birch pollen allergic donor; r Bet v 1 0.0025-25 nano-molar, COPs starting 10 fold higher; FIG. 4
Description: Basotest® (ORPEGEN Pharma Heidelberg, Germany) was used for the quantitative determination of in vitro basophile degranulation. Heparinized blood (100 μl) from a birch pollen allergic donor was first incubated with a stimulation buffer for 20 min at 37° C., and then with or without chemotactic peptide formylmethionylleucylphenylalanine (fMLP) as positive and negative controls respectively. Aliquots of blood were incubated in parallel with 100 μl allergen solution diluted in a saline solution for 20 min at 37° C. A dose response curve was performed with 25, 2.5, 0.25, 0.025 and 0.0025 nano-molar r Bet v 1 as well as starting 10 fold higher with AllerT mixes (AllerT1-T3, AllerT4-5 and AllerT6-8). The activation process was stopped by incubating the blood samples at 4° C. for 10 min. The samples were then incubated for 20 min at +4° C. with 20 μl of phycoerythrin (PE)-conjugated anti-IgE and fluorescein isothyocyanate (FITC)-conjugated anti-gp53 (CD63). Erythrocytes were subsequently removed by the addition of 2 ml of lysing solution (Becton-Dickinson). Cells were washed twice with PBS solution and resuspended in 200 μl of PBS solution and analyzed within 1 h by cytofluorimetry (FASCalibur, BectonDickinson). The basophile population was gated on the PE anti-IgE positive cells and the expression of gp53 (CD63) was analyzed on this population. […]

[4] = dilution 1:1, weal 4 mm or more with erythema

Molecule | Positive skin reactions (subjects) [1] | Positive skin reactions (subjects) [2, 4] | Reactivity lower than defined threshold (dubious) (subjects) ([2]; dilution 1:1, weal below 4 mm) | Positive skin reactions (subjects) ([2]; dilution 1:10) | Reactivity lower than defined threshold (dubious) (subjects) ([2]; dilution 1:10) | Positive skin reactions (subjects) ([2]; dilution 1:100) | Reactivity lower than defined threshold (dubious) (subjects) ([2]; dilution 1:100) | competition for IgE binding to coated r Bet v 1 (Bet v 1 specific IgE; FIG. 1) | basophil degranulation (IgE-positive cells expressing CD63) [3] | SPT result ([2]; birch pollen extract 100,000 SQ, recombinant Bet v 1 1 μM) | IC50 (Bet v 1 specific IgE; depending on the serum of the donor, FIG. 1, read-out: concentration competing with IgE present in the sera (50% inhibition)) [µM] | competition with Bet v 1 for IgE binding / residual IgE binding (Bet v 1 specific IgE)
CC[C@H](C)[C@H](NC(=O)[C@H](C)NC(=O)[C@H](CCC(N)=O)NC(=O)[C@@H]1CCCN1C(=O)[C@H](C)NC(=O)[C@@H](NC(=O)[C@H](CCCCN)NC(=O)[C@@H]1CCCN1C(=O)[C@H](Cc1ccccc1)NC(=O)[C@H](CC(C)C)NC(=O)[C@H](CC(N)=O)NC(=O)[C@H](CC(=O)O)NC(=O)CNC(=O)[C@H](CC(=O)O)NC(=O)[C@H](CC(C)C)NC(=O)[C@@H](NC(=O)[C@H](Cc1ccccc1)NC(=O)[C@H](C)NC(=O)[C@H](CCCCN)NC(=O)[C@H](Cc1ccccc1)NC(=O)[C@H](CC(C)C)NC(=O)[C@H](CCCNC(=N)N)NC(=O)[C@H](C)NC(=O)[C@H](C)NC(=O)[C@@H]1CCCN1C(=O)[C@@H](NC(=O)[C@@H](NC(=O)[C@H](CO)NC(=O)[C@@H](NC(=O)[C@@H](NC(=O)[C@H](CCC(=O)O)NC(=O)[C@@H](NC(=O)[C@H](CCC(=O)O)NC(=O)[C@H](Cc1ccc(O)cc1)NC(=O)[C@H](CC(N)=O)NC(=O)[C@H](Cc1ccccc1)NC(=O)[C@@H](NC(=O)CN)C(C)C)[C@@H](C)O)[C@@H](C)O)[C@@H](C)O)C(C)C)[C@@H](C)CC)[C@@H](C)CC)C(C)C)C(=O)N[C@@H](CO)C(=O)N[C@@H](CO)C(=O)N[C@H](C(=O)N[C@@H](CCC(=O)O)C(=O)N[C@@H](CC(N)=O)C(=O)N[C@H](C(=O)N[C@@H](CCC(=O)O)C(=O)NCC(=O)N[C@@H](CC(N)=O)C(=O)NCC(=O)NCC(=O)O)[C@@H](C)CC)C(C)C [AllerT1] | 0 | – | – | – | – | – | – | – | – | – | – | –
VATPDGGSILKISNKYHTKGDHEVKAEQVKASKEMGETLLRAVESYLLAHSDAYN [AllerT3] | 0 | – | – | – | – | – | – | – | – | – | – | –
B1 | – | 0 | 0 | 0 | 0 | 0 | 0 | no competition | – | – | – | –
B2 | – | 20 | – | 16 | – | 2 | – | – | concentration dependent manner | positive in all volunteers | 0.0001 to 10 | –
B3 | – | 0 | 1 | 0 | 0 | 0 | 0 | comparable result | – | – | – | do not show such binding
B4 | – | 0 | 0 | 0 | 0 | 0 | 1 | comparable result | – | – | – | do not show such binding
